According to PMC6189457:

Assay: confocal FL-CD19-GFP, WGA Pearson colocalisation, Nalm6 and 697
Conditions: glycan changed form; control: DMSO

B1: CD19: swainsonine (protein)
parent chain: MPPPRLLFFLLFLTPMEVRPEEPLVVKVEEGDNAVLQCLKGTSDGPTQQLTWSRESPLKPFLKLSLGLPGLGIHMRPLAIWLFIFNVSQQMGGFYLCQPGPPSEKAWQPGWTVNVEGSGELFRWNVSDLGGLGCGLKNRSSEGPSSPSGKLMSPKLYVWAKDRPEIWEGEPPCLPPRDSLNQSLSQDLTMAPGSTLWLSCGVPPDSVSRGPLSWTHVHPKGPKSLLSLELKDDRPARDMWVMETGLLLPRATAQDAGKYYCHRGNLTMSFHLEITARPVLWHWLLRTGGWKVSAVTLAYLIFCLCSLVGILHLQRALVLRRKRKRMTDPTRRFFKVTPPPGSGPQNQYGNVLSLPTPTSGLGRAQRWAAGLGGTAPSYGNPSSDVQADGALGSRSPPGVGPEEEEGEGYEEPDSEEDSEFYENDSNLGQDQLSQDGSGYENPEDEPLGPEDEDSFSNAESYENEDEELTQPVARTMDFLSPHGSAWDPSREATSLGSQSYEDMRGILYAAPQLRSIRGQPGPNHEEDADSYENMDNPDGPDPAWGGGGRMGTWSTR
localisation_or_trafficking: no change
